The results in this text go back to patent US20120107364A1 (ACTGEN, published 2012).

What all share (experiment): flow cytometry on Ba/F3 cells expressing the truncated PODXL2
A general note: Flow cytometry measures light scatter and fluorescence of single cells or particles in a stream.

Assay [1] has as its target T1, PODXL2, positions 1 to 300 (human, UniProt O00592 23-332).
T1 construct: Shortest of the 14 C-terminal truncations; Expressed on Ba/F3 cells; also called R300
T1 sequence: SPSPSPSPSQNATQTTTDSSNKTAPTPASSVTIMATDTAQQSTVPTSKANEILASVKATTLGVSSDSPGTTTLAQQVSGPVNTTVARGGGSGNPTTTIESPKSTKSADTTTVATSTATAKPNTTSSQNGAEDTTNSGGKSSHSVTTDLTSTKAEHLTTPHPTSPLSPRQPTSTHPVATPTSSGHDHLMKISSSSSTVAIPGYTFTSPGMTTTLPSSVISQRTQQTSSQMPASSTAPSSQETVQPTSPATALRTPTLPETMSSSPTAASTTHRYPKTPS
Here is the method: (§1) To each sample of the cell suspension, 50 μl of the hybridoma culture supernatant or 2-μg/ml of the purified antibody (hereinafter, referred to as an “antibody solution”) was added, and the antibody was reacted with the cells. As an isotype control of the antibody solution, a wash buffer containing 2 μg/ml of each of mouse IgG1 (BioLegend, 400412), mouse IgG2a (BioLegend, 400224), and mouse IgG2b (BioLegend, 400324) was used. The hybridoma culture supernatant was reacted with the target cells at room temperature for 30 minutes, followed by centrifugation at 700×g for 2 minutes. Then, a culture supernatant was removed. Further, 100 μl of a wash buffer was added, followed by centrifugation at 700×g for 2 minutes again. A supernatant was removed. Then, the cells were washed.
(§2) Next, to the cell pellets after the washing, 50 μl of Goat anti-mouse IgG, F(ab′) 2-PE (PE=phycoerythrin, Beckman Coulter, IM0855) diluted 200-fold with a wash buffer was added as a secondary antibody for detection, and reacted in the dark at room temperature for 30 minutes. The reaction was followed by centrifugation at 700×g for 2 minutes. A supernatant was removed. Further, 100 μl of a wash buffer was added, followed by centrifugation at 700×g for 2 minutes again. A supernatant was removed. Then, the cells were washed. Thereafter, the cells were suspended in an appropriate amount of a wash buffer. The reactivity between the antibody and the cells was analyzed by a flow cytometer (Beckman Coulter, FC500 MPL).
(§3) Thereafter, by the same method as in Example 1 (4) (the virus packaging and thereafter), Ba/F3 cells containing the PODXL2 gene sequences of various chain lengths were prepared. Further, by the same method as in Example 4, the reactivity between the ACT36-27_{—}5D1 antibody and the Ba/F3 cells expressing the PODXL2 molecules of various chain lengths was analyzed by a flow cytometer (FIG. 10).

Assay [2] deals with T2, PODXL2, positions 1 to 390 (human, UniProt O00592 23-422).
T2 construct: One of the 14 C-terminal truncations in 10-residue steps; Expressed on Ba/F3 cells; also called R390
T2 sequence: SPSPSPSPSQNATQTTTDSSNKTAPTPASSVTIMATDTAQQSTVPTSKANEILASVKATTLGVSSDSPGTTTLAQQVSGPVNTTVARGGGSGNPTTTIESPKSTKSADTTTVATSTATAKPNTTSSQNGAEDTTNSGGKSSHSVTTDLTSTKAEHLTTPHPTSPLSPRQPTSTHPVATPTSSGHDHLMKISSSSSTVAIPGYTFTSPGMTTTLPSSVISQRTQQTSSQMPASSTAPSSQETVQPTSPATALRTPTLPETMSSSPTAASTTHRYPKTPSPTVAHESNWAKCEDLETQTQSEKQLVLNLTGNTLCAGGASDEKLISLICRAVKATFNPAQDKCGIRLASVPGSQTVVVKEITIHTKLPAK
The protocol:
as §1, §2, §3

Assay [3] concerns the target T3, PODXL2, positions 1 to 420 (human, UniProt O00592 23-452).
T3 construct: Encoded as positions 1-420 in pMX-SST and expressed on Ba/F3 cells; The vector-encoded part is not described; also called R420
T3 sequence: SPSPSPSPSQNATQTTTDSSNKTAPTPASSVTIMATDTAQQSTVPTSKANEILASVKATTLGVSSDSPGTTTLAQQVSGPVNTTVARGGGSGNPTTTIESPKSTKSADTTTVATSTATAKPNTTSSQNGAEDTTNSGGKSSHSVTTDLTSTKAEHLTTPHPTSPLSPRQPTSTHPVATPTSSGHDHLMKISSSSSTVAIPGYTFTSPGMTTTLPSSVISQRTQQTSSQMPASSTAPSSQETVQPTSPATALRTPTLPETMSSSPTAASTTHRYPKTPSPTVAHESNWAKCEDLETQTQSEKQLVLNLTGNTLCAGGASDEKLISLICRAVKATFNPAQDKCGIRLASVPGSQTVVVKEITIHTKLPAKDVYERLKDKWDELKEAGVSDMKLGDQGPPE
Here is the method:
as §1, §2, §3

Assay [4] deals with T4, PODXL2, positions 1 to 360 (human, UniProt O00592 23-392).
T4 construct: One of the 14 C-terminal truncations; Expressed on Ba/F3 cells; also called R360
T4 sequence: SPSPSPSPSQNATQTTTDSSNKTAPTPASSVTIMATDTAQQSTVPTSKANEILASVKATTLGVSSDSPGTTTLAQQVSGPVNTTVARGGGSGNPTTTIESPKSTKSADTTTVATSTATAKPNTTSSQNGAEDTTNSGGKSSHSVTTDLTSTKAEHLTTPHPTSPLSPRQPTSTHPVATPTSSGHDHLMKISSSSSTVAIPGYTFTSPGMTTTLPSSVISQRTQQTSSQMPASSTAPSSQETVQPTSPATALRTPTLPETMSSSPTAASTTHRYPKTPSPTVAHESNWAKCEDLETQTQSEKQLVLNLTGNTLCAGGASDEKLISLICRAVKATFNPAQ
The protocol: as §1, §2, §3

Assay [5] concerns the target T5, PODXL2, positions 1 to 320 (human, UniProt O00592 23-352).
T5 construct: One of the 14 C-terminal truncations; Expressed on Ba/F3 cells; also called R320
T5 sequence: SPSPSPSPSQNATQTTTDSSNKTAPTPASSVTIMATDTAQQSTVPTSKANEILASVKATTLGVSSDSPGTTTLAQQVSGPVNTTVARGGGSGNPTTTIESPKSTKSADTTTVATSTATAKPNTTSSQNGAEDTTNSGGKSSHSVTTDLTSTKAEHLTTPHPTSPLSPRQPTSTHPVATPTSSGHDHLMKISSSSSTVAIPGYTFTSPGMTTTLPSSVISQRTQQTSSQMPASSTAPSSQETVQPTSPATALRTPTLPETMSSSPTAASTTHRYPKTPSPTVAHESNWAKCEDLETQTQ
The protocol:
as §1, §2, §3

B1: ACT36-27-5D1 antibody (antibody, V domains shown)
VH: EVQLQQSGPELVKPGASVKMSCKASGYTFTSYVMHWVKQKPGQGLEWIGYIHPYNDGIKYNEKFKGKATLTSDKSSSTAYMDLSSLTSEDSAVYYCARSWDWYFDVWAAGTTVTVSS
VL: QIVLTQSPAIMSASPGEKVSMTCSASSSVSYMHWYQQKSGTSPKRWIYDTSKLASGVPARFSGSGSGTSYSLTISSMEAEDAATYYCLQWSSNPPTFGGGTKLE
notes: also called anti-PODXL2 antibody ACT36-27-5D1; anti-ACT36-27-5D1 monoclonal antibody
As for B1, the binding result is “no binding” in assay [1]; “no binding” in assay [2]; “binds” in assay [3]; “no binding” in assay [4]; “no binding” in assay [5].
